Like-named read-outs stand apart in the source and are kept apart here.
Legend:
[1] = target: collagen type I, bovine tendon, as absorbable collagen sponge (ACS) (bovine) (UniProt P02453); assay: absorption and release from a collagen sponge, protein in the supernatant by micro-BCA; ACS (150 μL) treated with the fragment in PBS for 1 h at room temperature (75 μg; for ColG-FNIII12-14 also 37.5 and 15 μg); release into 150 μL PBS at 37 °C, supernatant taken and PBS refreshed at 36, 60, 120 h
[2] = target: collagen type I, bovine tendon, as absorbable collagen sponge (ACS) (bovine) (UniProt P02453)
[3] = target: collagen type I, bovine tendon, as absorbable collagen sponge (ACS) (bovine) (UniProt P02453); remark: listed apart in the source
[4] = target: ColG-FNIII12-14 treated collagen scaffold (Clostridium histolyticum | not stated | bovine) (UniProt P02453); assay: absorption and release of fluorescent rhBMP-2 from a collagen sponge, fluorescence of the supernatant; Dylight 488 rhBMP-2 (0.1, 0.5, 1, 2 μg/mL) incubated 1 h at 37 °C with ACS with or without ColG-FNIII12-14; release into PBS at 37 °C, supernatant read and PBS refreshed at 36, 60, 120 h

Sequence of UniProt P02453 (P02453 162-1217, chain 1 of 2): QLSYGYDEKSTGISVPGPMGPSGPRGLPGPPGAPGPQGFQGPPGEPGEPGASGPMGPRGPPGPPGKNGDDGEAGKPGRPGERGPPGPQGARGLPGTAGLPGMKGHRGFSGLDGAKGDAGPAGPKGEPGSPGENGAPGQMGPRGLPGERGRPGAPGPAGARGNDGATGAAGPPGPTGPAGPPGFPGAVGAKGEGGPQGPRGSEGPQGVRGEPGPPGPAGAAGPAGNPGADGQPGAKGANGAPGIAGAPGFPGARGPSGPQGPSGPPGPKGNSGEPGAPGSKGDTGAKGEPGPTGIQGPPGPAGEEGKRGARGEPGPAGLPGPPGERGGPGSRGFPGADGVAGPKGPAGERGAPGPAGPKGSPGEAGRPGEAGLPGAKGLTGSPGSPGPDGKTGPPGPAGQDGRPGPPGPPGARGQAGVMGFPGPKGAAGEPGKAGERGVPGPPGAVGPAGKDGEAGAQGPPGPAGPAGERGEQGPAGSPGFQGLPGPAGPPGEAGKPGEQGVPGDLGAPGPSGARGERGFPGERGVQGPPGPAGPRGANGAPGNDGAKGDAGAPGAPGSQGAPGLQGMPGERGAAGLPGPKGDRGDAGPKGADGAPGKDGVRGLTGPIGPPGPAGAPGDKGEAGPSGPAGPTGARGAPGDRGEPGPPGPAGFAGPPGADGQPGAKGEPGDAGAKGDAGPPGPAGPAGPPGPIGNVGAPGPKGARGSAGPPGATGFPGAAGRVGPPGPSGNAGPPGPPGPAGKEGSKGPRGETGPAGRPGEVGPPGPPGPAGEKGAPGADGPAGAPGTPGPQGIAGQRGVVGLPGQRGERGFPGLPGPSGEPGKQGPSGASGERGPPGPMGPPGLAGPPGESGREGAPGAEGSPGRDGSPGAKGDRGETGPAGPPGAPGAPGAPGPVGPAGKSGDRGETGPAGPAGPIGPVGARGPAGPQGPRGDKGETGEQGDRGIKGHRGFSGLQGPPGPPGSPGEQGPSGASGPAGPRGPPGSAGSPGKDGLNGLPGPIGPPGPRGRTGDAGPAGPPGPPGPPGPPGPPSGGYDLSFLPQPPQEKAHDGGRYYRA
Sequence of UniProt P02453 (P02465 80-1117, chain 2 of 2, further chain): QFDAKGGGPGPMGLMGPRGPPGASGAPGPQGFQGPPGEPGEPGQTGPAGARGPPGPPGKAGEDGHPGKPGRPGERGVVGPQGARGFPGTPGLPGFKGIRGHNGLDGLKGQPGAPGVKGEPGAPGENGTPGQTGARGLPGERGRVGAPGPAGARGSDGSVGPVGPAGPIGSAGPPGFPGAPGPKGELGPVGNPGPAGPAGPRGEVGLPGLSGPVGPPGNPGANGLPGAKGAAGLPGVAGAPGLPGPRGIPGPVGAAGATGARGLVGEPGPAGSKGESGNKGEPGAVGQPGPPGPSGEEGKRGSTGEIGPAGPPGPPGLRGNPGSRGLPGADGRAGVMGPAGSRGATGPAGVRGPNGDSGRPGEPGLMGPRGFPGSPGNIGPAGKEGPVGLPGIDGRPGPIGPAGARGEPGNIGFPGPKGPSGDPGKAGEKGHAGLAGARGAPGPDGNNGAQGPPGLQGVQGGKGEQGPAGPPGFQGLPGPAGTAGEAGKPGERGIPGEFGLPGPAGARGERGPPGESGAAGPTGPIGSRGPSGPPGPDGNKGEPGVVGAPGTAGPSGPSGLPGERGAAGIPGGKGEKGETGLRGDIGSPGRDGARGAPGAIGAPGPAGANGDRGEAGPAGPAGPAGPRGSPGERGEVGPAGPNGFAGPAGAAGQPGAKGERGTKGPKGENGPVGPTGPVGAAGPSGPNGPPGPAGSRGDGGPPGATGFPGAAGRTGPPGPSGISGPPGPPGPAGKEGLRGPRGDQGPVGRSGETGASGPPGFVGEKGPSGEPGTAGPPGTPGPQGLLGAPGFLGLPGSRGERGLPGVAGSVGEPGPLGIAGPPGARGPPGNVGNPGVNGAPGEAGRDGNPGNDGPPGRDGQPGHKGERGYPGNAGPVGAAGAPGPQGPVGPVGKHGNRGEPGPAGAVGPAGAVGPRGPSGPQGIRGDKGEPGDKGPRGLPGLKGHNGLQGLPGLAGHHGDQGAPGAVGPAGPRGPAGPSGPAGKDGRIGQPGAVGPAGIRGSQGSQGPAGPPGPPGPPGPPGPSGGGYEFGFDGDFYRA

ColG-FNIII12-14 protein fragment
percent of the absorbed fragment remaining bound after 120 h [1]: 43%

ColH-FNIII12-14 protein fragment
amount of fragment remaining on the ACS after 120 h (pmol per 1 mg of collagen) [2]: 90
percent of the absorbed fragment remaining bound after 120 h [3]: 10%

PLGF-FNIII12-14 protein fragment
percent of the absorbed fragment remaining bound after 120 h [1]: 10%

B1: recombinant human bone morphogenic protein 2, tagged with Dylight 488 (ligand)
chain: QAKHKQRKRLKSSCKRHPLYVDFSDVGWNDWIVAPPGYHAFYCHGECPFPLADHLNSTNHAIVQTLVNSVNSKIPKACCVPTELSAISMLYLDENEKVVLKNYQDMVVEGCGCR
modifications: Dylight 488 (amino reactive NHS ester dye)
percent of rhBMP-2 absorbed [4]: 30 to 32%
percent of the absorbed rhBMP-2 retained after 120 h [4]: 33%

— publication PMC10173277
